Test results taken from patent US20060286584A1 (University of Texas, published 2006).
Values belong to the molecule of their own block, whether it stands above or below them.

How the values were obtained:
[1] = system: T1, GST-Yki fusion protein (GST with full length Yki)
T1 sequence: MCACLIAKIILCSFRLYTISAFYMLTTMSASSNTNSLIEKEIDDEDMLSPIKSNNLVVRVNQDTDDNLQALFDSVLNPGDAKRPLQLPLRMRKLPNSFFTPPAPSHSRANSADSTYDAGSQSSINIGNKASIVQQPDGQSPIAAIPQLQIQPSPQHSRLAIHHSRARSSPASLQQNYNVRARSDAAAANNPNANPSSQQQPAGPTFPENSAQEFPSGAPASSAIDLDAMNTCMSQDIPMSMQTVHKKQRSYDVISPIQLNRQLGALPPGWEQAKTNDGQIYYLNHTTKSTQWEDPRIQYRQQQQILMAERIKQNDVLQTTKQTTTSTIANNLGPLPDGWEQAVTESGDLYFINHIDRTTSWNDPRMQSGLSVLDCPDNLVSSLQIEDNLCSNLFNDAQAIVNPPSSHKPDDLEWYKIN

[2] = target: T2, GST-Yki fusion protein (GST with full length Yki)
T2 chain: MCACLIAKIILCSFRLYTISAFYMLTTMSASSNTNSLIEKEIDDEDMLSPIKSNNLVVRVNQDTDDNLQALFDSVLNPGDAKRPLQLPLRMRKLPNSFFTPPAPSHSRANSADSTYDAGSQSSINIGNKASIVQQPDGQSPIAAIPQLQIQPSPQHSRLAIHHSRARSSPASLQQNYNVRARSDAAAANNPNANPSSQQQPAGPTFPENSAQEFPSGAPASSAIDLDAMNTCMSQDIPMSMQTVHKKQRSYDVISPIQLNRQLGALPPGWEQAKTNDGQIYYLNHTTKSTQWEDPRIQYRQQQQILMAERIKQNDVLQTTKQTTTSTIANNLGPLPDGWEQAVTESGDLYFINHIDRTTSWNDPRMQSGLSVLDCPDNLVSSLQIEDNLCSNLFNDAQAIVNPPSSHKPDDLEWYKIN

[3] = target: GST-Tsc1 fusion (control substrate) [GST: P08515]
V5-tagged Wts (Warts) = target: T3, V5-tagged Wts (Warts) (Drosophila, UniProt Q9VA38 1-1; Q9VA38 2-1105); experiment: co-immunoprecipitation from S2 cells (anti-HA IP, anti-V5 blot)
T3 construct: Expressed in S2 cells; in the kinase assay it was immunoprecipitated with anti-V5, alone or after co-expression with Hpo-Sav; also called Lats
T3 sequence: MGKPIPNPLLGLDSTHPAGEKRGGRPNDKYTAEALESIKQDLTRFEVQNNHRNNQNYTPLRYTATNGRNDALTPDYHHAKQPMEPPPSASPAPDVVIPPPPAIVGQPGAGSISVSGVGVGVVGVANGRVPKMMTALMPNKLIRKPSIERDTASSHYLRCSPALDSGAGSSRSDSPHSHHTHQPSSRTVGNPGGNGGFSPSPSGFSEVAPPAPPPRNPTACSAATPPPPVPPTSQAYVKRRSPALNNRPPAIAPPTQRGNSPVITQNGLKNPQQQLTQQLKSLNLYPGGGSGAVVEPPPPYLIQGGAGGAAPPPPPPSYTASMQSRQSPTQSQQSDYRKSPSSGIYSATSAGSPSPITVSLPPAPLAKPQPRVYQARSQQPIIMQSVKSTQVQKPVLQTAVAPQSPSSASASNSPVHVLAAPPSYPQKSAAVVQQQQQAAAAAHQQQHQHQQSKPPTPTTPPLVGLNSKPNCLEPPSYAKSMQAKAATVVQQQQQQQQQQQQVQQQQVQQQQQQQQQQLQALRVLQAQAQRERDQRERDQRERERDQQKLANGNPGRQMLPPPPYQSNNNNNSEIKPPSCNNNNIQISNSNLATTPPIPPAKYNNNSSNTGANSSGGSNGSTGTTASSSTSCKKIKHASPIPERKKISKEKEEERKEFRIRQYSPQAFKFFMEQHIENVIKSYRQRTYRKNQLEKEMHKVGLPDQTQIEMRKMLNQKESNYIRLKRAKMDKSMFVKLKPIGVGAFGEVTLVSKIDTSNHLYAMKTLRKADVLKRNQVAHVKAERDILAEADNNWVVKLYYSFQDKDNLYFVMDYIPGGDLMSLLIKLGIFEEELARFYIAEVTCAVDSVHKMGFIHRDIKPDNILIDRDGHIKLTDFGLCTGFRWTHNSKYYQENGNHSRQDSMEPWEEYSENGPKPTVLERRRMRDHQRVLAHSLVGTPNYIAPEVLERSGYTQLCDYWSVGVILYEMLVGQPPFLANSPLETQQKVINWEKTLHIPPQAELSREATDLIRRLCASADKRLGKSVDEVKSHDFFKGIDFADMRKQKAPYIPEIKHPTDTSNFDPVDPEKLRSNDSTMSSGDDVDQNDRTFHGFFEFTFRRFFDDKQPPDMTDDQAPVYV
Excerpt: HA-tagged wildtype Yki (Yki, lane 1), a mutant Yki carrying point mutations in the WW domains (Yki^{W292A P295A W361A P364A}, abbreviated as Yki^WM in lane 2), or a truncated Yki containing only the N-terminal half of the protein (Yki^N, lane 3) were co-expressed with V5-tagged Wts. α-HA immunoprecipitates were probed with and α-V5 antibody to detect physical interaction between the Yki variants and Wts. Note that wildtype Yki, but not Yki^WM or Yki^N, could immunoprecipitate Wts.
HA-tagged Yki was constructed by adding a C-terminal HA epitope ([…]) to Yki using the pAc5.1/V5-HisB vector (Invitrogen). N-terminal V5-tagged Wts was constructed in the same vector by adding a V5 tag ([…]) between the first and second codon of Wts. Point mutations of Yki and Wts were introduced using the QuikChange site-directed mutagenesis kit (Stratagene). Myc-tagged Hpo and Flag-tagged Sav constructs have been described previously (Wu et al., 2003). The pGEX4T-1 vector was used to express a fusion of GST with full length Yki the GST-Yki preparation contained two Yki-related bands, with the upper band migrating at the expected molecular weight. It also contained a contaminating band (FIG. 6C). The Yki-related bands, but not the contaminating band, were diminished by thrombin, which cleaves the GST-Yki fusion at the junction of GST and Yki (data not shown). […]

Sequence of GST-Tsc1 fusion (control substrate) [GST: P08515] (P08515 whole entry, looked up, the tested form may be a part): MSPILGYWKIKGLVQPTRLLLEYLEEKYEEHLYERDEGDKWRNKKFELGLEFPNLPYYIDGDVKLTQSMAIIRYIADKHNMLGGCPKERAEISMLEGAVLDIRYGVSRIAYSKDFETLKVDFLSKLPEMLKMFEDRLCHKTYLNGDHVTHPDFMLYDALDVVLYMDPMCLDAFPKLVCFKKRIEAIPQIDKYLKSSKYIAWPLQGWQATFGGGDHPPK

Molecule: V5-tagged kinase-dead Wts^K743R
in vitro kinase activity (32P), kinase-dead Wts co-expressed with Hpo-Sav and immunoprecipitated [1]: a kinase dead mutation of Wts, WtsK^743R, completely abolished the in vitro kinase activity of Wts towards Yki

B1: V5-tagged Wts (Warts) (protein)
chain: MGKPIPNPLLGLDSTHPAGEKRGGRPNDKYTAEALESIKQDLTRFEVQNNHRNNQNYTPLRYTATNGRNDALTPDYHHAKQPMEPPPSASPAPDVVIPPPPAIVGQPGAGSISVSGVGVGVVGVANGRVPKMMTALMPNKLIRKPSIERDTASSHYLRCSPALDSGAGSSRSDSPHSHHTHQPSSRTVGNPGGNGGFSPSPSGFSEVAPPAPPPRNPTACSAATPPPPVPPTSQAYVKRRSPALNNRPPAIAPPTQRGNSPVITQNGLKNPQQQLTQQLKSLNLYPGGGSGAVVEPPPPYLIQGGAGGAAPPPPPPSYTASMQSRQSPTQSQQSDYRKSPSSGIYSATSAGSPSPITVSLPPAPLAKPQPRVYQARSQQPIIMQSVKSTQVQKPVLQTAVAPQSPSSASASNSPVHVLAAPPSYPQKSAAVVQQQQQAAAAAHQQQHQHQQSKPPTPTTPPLVGLNSKPNCLEPPSYAKSMQAKAATVVQQQQQQQQQQQQVQQQQVQQQQQQQQQQLQALRVLQAQAQRERDQRERDQRERERDQQKLANGNPGRQMLPPPPYQSNNNNNSEIKPPSCNNNNIQISNSNLATTPPIPPAKYNNNSSNTGANSSGGSNGSTGTTASSSTSCKKIKHASPIPERKKISKEKEEERKEFRIRQYSPQAFKFFMEQHIENVIKSYRQRTYRKNQLEKEMHKVGLPDQTQIEMRKMLNQKESNYIRLKRAKMDKSMFVKLKPIGVGAFGEVTLVSKIDTSNHLYAMKTLRKADVLKRNQVAHVKAERDILAEADNNWVVKLYYSFQDKDNLYFVMDYIPGGDLMSLLIKLGIFEEELARFYIAEVTCAVDSVHKMGFIHRDIKPDNILIDRDGHIKLTDFGLCTGFRWTHNSKYYQENGNHSRQDSMEPWEEYSENGPKPTVLERRRMRDHQRVLAHSLVGTPNYIAPEVLERSGYTQLCDYWSVGVILYEMLVGQPPFLANSPLETQQKVINWEKTLHIPPQAELSREATDLIRRLCASADKRLGKSVDEVKSHDFFKGIDFADMRKQKAPYIPEIKHPTDTSNFDPVDPEKLRSNDSTMSSGDDVDQNDRTFHGFFEFTFRRFFDDKQPPDMTDDQAPVYV
in vitro kinase activity (32P), Wts co-expressed with Hpo-Sav and immunoprecipitated [2]: When co-expressed with Hpo-Sav, however, Wts displayed specific kinase activity towards Yki | in vitro kinase activity (32P), Wts co-expressed with Hpo-Sav and immunoprecipitated [3]: Wts displayed specific kinase activity towards Yki (FIG. 6C, lane 2) but not a control substrate (FIG. 6C, lane 4)

binding result (V5-tagged Wts (Warts)): no binding
B2: HA-tagged Yki^W292A P295A W361A P364A (other)
chain: MCACLIAKIILCSFRLYTISAFYMLTTMSASSNTNSLIEKEIDDEDMLSPIKSNNLVVRVNQDTDDNLQALFDSVLNPGDAKRPLQLPLRMRKLPNSFFTPPAPSHSRANSADSTYDAGSQSSINIGNKASIVQQPDGQSPIAAIPQLQIQPSPQHSRLAIHHSRARSSPASLQQNYNVRARSDAAAANNPNANPSSQQQPAGPTFPENSAQEFPSGAPASSAIDLDAMNTCMSQDIPMSMQTVHKKQRSYDVISPIQLNRQLGALPPGWEQAKTNDGQIYYLNHTTKSTQAEDARIQYRQQQQILMAERIKQNDVLQTTKQTTTSTIANNLGPLPDGWEQAVTESGDLYFINHIDRTTSANDARMQSGLSVLDCPDNLVSSLQIEDNLCSNLFNDAQAIVNPPSSHKPDDLEWYKINYPYDVPDYA
notes: Expressed in S2 cells; also called Yki^WM; mutant Yki carrying point mutations in the WW domains
